Where a chain is given by its changes, count along the chain named. Names and notes keep the numbering of the source.
B1: OsTIPS: mutated rice EPSPS with mutation T173I and P177S (SEQ ID NO:35); same mutation type as glyphosate-resistant corn GA21 (protein)
chain: MAAKAEEIVLQPIREISGAVQLPGSKSLSNRILLLSALSEGTTVVDNLLNSEDVHYMLEALKALGLSVEADKVAKRAVVVGCGGKFPVEKDAKEEVQLFLGNAGIAMRSLTAAVTAAGGNATYVLDGVPRMRERPIGDLVVGLKQLGADVDCFLGTECPPVRVKGIGGLPGGKVKLSGSISSQYLSALLMAAPLALGDVEIEIIDKLISIPYVEMTLRLMERFGVKAEHSDSWDRFYIKGGQKYKSPGNAYVEGDASSASYFLAGAAITGGTVTVQGCGTTSLQGDVKFAEVLEMMGAKVTWTDTSVTVTGPPREPYGKKHLKAVDVNMNKMPDVAMTLAVVALFADGPTAIRDVASWRVKETERMVAIRTELTKLGASVEEGPDYCIITPPEKLNITAIDTYDDHRMAMAFSLAACADVPVTIRDPGCTRKTFPNYFDVLSTFVRN
modifications: This sequence is synthesized in lab.
notes: same mutation type as glyphosate-resistant corn GA21
B2: 1-552: rice EPSPS with G172A, P177S, K399N, V403A and T466S mutations (protein)
chain: B1 chain with G104A, I105T, K331N, V335A
modifications: This sequence is synthesized in lab.
notes: rice EPSPS with G172A, P177S, K399N, V403A and T466S mutations
B3: SEQ ID NO:23: rice EPSPS with A73S, G172A, P177S, L214F and V403A mutations; sample code not printed (protein)
chain: B1 chain with A5S, G104A, I105T, L146F, V335A
modifications: This sequence is synthesized in lab.
B4: SEQ ID NO:19: rice EPSPS with A73K, D114H, V136M, K161E, G172A, P177S, A260T and V403A mutations; sample code not printed (protein)
chain: B1 chain with A5K, D46H, V68M, K93E, G104A, I105T, A192T, V335A
modifications: This sequence is synthesized in lab.
B5: 1-246: rice EPSPS with A145G, G172A, P177S, V403A, T442S and D472E mutations (protein)
chain: B1 chain with A77G, G104A, I105T, V335A, T374S, D404E
modifications: This sequence is synthesized in lab.
notes: rice EPSPS with A145G, G172A, P177S, V403A, T442S and D472E mutations
B6: 1-547: rice EPSPS with E137D, G172A, P177S, L253M and V403A mutations (protein)
chain: B1 chain with E69D, G104A, I105T, L185M, V335A
modifications: This sequence is synthesized in lab.
notes: rice EPSPS with E137D, G172A, P177S, L253M and V403A mutations
B7: 1-98: rice EPSPS with A73T, G172A, P177S and V403A mutations (protein)
chain: B1 chain with A5T, G104A, I105T, V335A
modifications: This sequence is synthesized in lab.
notes: rice EPSPS with A73T, G172A, P177S and V403A mutations
B8: 1-411: rice EPSPS with G172A, P177S, Y252F and V403A mutations (protein)
chain: B1 chain with G104A, I105T, Y184F, V335A
modifications: This sequence is synthesized in lab.
notes: rice EPSPS with G172A, P177S, Y252F and V403A mutations
B9: 2-47: rice EPSPS with G172A, M175A, P177S, M258L, K356E, V403A and F512I mutations (protein)
chain: B1 chain with G104A, I105T, M107A, M190L, K288E, V335A, F444I
modifications: This sequence is synthesized in lab.
notes: rice EPSPS with G172A, M175A, P177S, M258L, K356E, V403A and F512I mutations
B10: 1-68: rice EPSPS with A70V, G172A, P177S, V403A and R514S mutations (protein)
chain: B1 chain with A2V, G104A, I105T, V335A, R446S
modifications: This sequence is synthesized in lab.
notes: rice EPSPS with A70V, G172A, P177S, V403A and R514S mutations
B11: 2-5: rice EPSPS with E163K, G172A, P177S, A216V, L253M, H389R and V403A mutations (protein)
chain: B1 chain with E95K, G104A, I105T, A148V, L185M, H321R, V335A
modifications: This sequence is synthesized in lab.
notes: rice EPSPS with E163K, G172A, P177S, A216V, L253M, H389R and V403A mutations
B12: 1-599: rice EPSPS with A73G, L134F, G172A, P177S, G265V, S374R and V403A mutations (protein)
chain: B1 chain with A5G, L66F, G104A, I105T, G197V, S306R, V335A
modifications: This sequence is synthesized in lab.
notes: rice EPSPS with A73G, L134F, G172A, P177S, G265V, S374R and V403A mutations
B13: 1-386: rice EPSPS with G172A, P177S, V403A and F502V mutations (protein)
chain: B1 chain with G104A, I105T, V335A, F434V
modifications: This sequence is synthesized in lab.
notes: rice EPSPS with G172A, P177S, V403A and F502V mutations
B14: 3-33: rice EPSPS with G172A, P177S, V208A, L264H, V403A and R514K mutations (protein)
chain: B1 chain with G104A, I105T, V140A, L196H, V335A, R446K
modifications: This sequence is synthesized in lab.
notes: rice EPSPS with G172A, P177S, V208A, L264H, V403A and R514K mutations
B15: 1-139: rice EPSPS with A73T, E86G, G172A, P177S and V403A mutations (protein)
chain: B1 chain with A5T, E89G, G104A, I105T, V335A
modifications: This sequence is synthesized in lab.
notes: rice EPSPS with A73T, E86G, G172A, P177S and V403A mutations
B16: 2-46: rice EPSPS with G172A, P177S, N246D and V403A mutations (protein)
chain: B1 chain with G104A, I105T, N249D, V335A
modifications: This sequence is synthesized in lab.
notes: rice EPSPS with G172A, P177S, N246D and V403A mutations
B17: 3-36: rice EPSPS with V113M, G172A, P177S and V403A mutations (protein)
chain: B1 chain with V45M, G104A, I105T, V335A
modifications: This sequence is synthesized in lab.
notes: rice EPSPS with V113M, G172A, P177S and V403A mutations

system: Escherichia coli DH5α with EPSPS gene knocked out; experiment: Resistance test of rice EPSPS mutants from error-prone PCR on OsGPV: colony growth on medium with 0, 100 mM and 125 mM glyphosate (FIG. 7); assay type: cell-based; settings: 100 mM glyphosate
Description: In order to further improve the glyphosate resistance and develop highly resistant rice EPSPS mutants that can meet commercial production requirements, we used OsGPV as a template to perform random mutations, with high-concentration glyphosate screening, and to identify EPSPS mutant that can improve the glyphosate resistance.
We used OsGPV(SEQ ID NO:6) as a template to perform error-prone PCR. (With GeneMorph II Random Mutagenesis Kit, #200550, Agilent Technologies).
a) The recovered product was digested with EcoRI and SbfI, and then ligated to the pKED2 vector after the same double digestion with T4 DNA ligase to obtain the ligation product to obtain the vector carrying the rice EPSPS gene mutant.
b) Transformed the above vector into Escherichia coli DH5α with EPSPS gene knocked out. The transformation steps were as follows: add the above ligation product to 50 μl E. coli DH5α competent cells with EPSPS gene knocked out, mix well and incubate on ice for 30 min, then after a heat shock at 42° C. for 90 s, immediately place it in an ice bath on ice for 2 min after taking it out. After the ice bath, add 500 μl of LB liquid medium and resuscitate at 37° C. at 180 r/min for 45 min. The transformed Escherichia coli was a mutant library expressing rice EPSPS mutant genes obtained on the template basis of OsGPV.
5) Centrifuged the transformed product obtained above at 3000 rpm for 5 min, discarded the supernatant, then resuspended it in 1 ml M9 liquid medium, added 200 μl M9 liquid medium to resuspend and inoculated it on an M9 plate containing 75 mM glyphosate. Incubated at 37 degrees for 24 hours.
Pick and saved the single colonies grown in the above screening plates, and conduct further resistance identification and sequencing
ii. Resistance test of rice mutants. In this example, the wild-type rice EPSPS gene OsWT, the most widely used commercial glyphosate-resistant gene CP4EPSPS, the rice mutantOsTIPS, which had the same mutation type with commercial glyphosate-resistant corn GA21, and the rice mutant OsGPV with the highly glyphosate-resistant rice EPSPS mutant gene obtained in this study were transformed as control, and the newly obtained rice EPSPS mutants were transformed as the experimental group, and the glyphosate resistance among the control and the mutants were compared. The monoclonal bacteria of the control group and the experimental group were respectively inoculated into a medium containing 0, 100 mM and 125 mM glyphosate, and the growth of colonies in each group was observed.

| Molecule | colony growth under 100 mM glyphosate |
| --- | --- |
| B1 | did not grow |

same assay, conditions: 125 mM glyphosate pressure, FIG. 7

| Molecule | colony growth status compared with OsGPV |
| --- | --- |
| B2 | significantly higher than OsGPV |
| B3 | significantly higher than OsGPV |
| B4 | significantly higher than OsGPV |
| B5 | significantly higher than OsGPV |
| B6 | significantly higher than OsGPV |
| B7 | significantly higher than OsGPV |
| B8 | significantly higher than OsGPV |
| B9 | significantly higher than OsGPV |
| B10 | significantly higher than OsGPV |
| B11 | significantly higher than OsGPV |
| B12 | significantly higher than OsGPV |
| B13 | significantly higher than OsGPV |
| B14 | significantly higher than OsGPV |
| B15 | significantly higher than OsGPV |
| B16 | significantly higher than OsGPV |
| B17 | significantly higher than OsGPV |

— patent publication US20250277196A1, “EPSPS MUTANTS AND METHOD OF ITS USES” (CROPEDIT BIOTECHNOLOGY INC., priority 2021, published 2025)
